According to patent US20220125947A1 (published 2022):
Positions count from the first letter of the chain named.

B1: VG9B369 (antibody, human IgG1, kappa, V domains shown)
VH: EVQLLESGPTLVKPTQTLTLTCTFSGFSLSTIGVGVGWIRQPPGKALEWLSLIYWNDDKRYNPSLKSRLTITKDTSKNQVVLTMTNMDPVDTATYYCAHSHDWVHAFDIWGQGTMVTVSS
VL: DIVMTQSPSSLSASVGDRVTITCQASQDISHYLNWYQQKPGKAPKFLIYDASNLDTGVPSRFSGSGSGTDFTFTISSLQPEDIATYYCQQYDNFPLTFGGGTKVEIKR
notes: IgG1, kappa; specificity column: g/d constant
B2: VG9B144 (antibody, human IgG1, lambda, V domains shown)
VH: QVQLVQSGAEVKKPGASVKVSCKASGYTFTGYYMHWMRQAPGQGLEWMGWINPNSGATNKEQKFQGRVTMTRDTSISTAYMELSRLRSDDTAVYYCAREDDAFDVWGQGTMVTVSS
VL: SSELTQDPAVSVALGQTVRITCQGDNLRNYYATWFQQKPGQAPVLVFFGKNNRPSGIPDRFSGSSSGDTASLTITGAQAEDEADYYCNSRDSSGNHVVFGGGTKLTVLG
notes: IgG1, lambda; specificity column: g/d constant
B3: VG9B53 (antibody, human IgG1, kappa, V domains shown)
VH: QVQLQESGPGLVKPSETLSLTCTVSGGSISSYYWSWIRQPAGKGLEWIGRIHTIGSINYNPSLKSRVTMSVDTSKNQFSLKLSSVTAADTAVYYCAMEGVGATNYYYGMAVWGRGTMVTVSS
VL: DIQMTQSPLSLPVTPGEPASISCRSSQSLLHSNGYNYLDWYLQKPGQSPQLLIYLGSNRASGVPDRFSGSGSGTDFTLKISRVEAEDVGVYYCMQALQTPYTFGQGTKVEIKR
notes: IgG1, kappa; specificity column: Vd2
B4: VG9B386 (antibody, human IgG1, kappa, V domains shown)
VH: EVQLVESGGGLVKPGGSLRLSCAASGFTFSSYSMIWVRQAPGKGLEWVSSIGSSSTYIYYADSVRGRFTISRDNAKTSLYLQMNSLRAEDTAMYFCARDGETGGFDYWGQGILVTVSS
VL: EIVMTQSPGTLSLSPGERATLSCRASQSISRSYLAWYQQKPGQPPRLLIYGPSNRATGIPDRFSASGSGTDFTLTNSRLEPEDFAVYYCQQYGSLPLTFGGGTKVEIKR
notes: as for B1
B5: VG9B125 (antibody, human IgG1, kappa, V domains shown)
VH: EVQLVESGGTLVQPGGSLRLSCAVSGFTFSSYDMNWVRQAPGKGLEWVSYISSSSTAKYYADSVKGRFTISRDNAKNSLYLQMNSLWDEDTAVYYCAREDIVVVTPILQHWGQGTTVTVSS
VL: EIVMTQSPATLSLSPGERAILSCRASQSVSKDLAWYQQKPGQAPRLLIYDASNRATGIPARISGSGSGTDFTLTISSLEPEDFAVYYCQQRINWPLFTFGPGTKVEIKR
notes: as for B1
B6: VG9B136 (antibody, human IgG1, kappa, V domains shown)
VH: QVQLQQSGPGLVKPSQTLSLTCAISGDSVSSNRAAWNWIRQSPSKGLEWLGRTYYRSKWYNEYAASVKSRMSINPDTSKNQFSLQLNSVTPEDTALYYCARDLWELREACDIWGQGTMVTVSS
VL: DIVMTQSPSFLSTFVGDRVTITCRASQGISSYLAWYQQKPGKVPKLLIYVASTLQSGVPSRFSGSGSGTEFTLTISSLQPEDFATYYCQQLNSYPFTFGPGTKVDIKR
notes: as for B1
B7: VG9B112 (antibody, human IgG1, kappa, V domains shown)
VH: QVQLQQSGPGLVKPSQTLSLTCAISGDSVSSNSAAWNWIRQSPSRGLEWLGGTYYRSKWFNNYAVSVKSRITINPDTSTNQFSLQLNSVTPADTAVYYCARGEWGLRDAFDIWGQGTMVTVSS
VL: B6 VL with V3Q, T13A, F14S, T20I, S30H, F96W, P100Q, V104L, D105E
notes: as for B1
B8: VG9B41 (antibody, human IgG1, kappa, V domains shown)
VH: QVQLQESGPQLVRPGASVKISCKASGYSFTTYWMHWVKQRPGQGLEWIGLIDPSDSETRLNQKFKDKATLTVDKSSSTAYMRLSSPTSEDSAVYYCASNRWLLGWGQGTMVTVSS
VL: EIVLTQTPLSSPVTLGQPASISCRSSQSLVHSDGNTYLSWLHQRPGQPPRLLIYKISNRFSGVPDRFSGSGAGTDFTLKISRVETEDVGVYYCVQTREFPLTFGGGTKVEIKR
notes: as for B3
B9: VG9B189 (antibody, human IgG1, lambda, V domains shown)
VH: EVQLVQSGGGLVKPGASLKLSCAASGFTFSNHGMSWVRQTSDKRLEWVASITRGGDTTYYPDNVKGRFTISRENAKNTLYLQMSSLKSDDTALYYCTRGPLTVGYAMDYWGQGTTVTVSS
VL: QSVVTQPPSASGSPGQSVTISCTGTSSDVGGYNYVSWYQQHPGKAPKLMIYEVSKRPSGVPDRFSGSKSGNTASLTVSGLQAEDEADYYCNSYAGSNNFEVFGGGTKVTVLG
notes: IgG1, lambda; specificity column: Vd2
B10: VG9B410 (antibody, human IgG1, kappa)
heavy: not shown
light: DIQMTQSPSSVSASVGDRVTITCRASQGINSWLAWYQQKPGNAPKLLIYAASSLQSGVPSRFSGIGSGTDFIFTISSLQPEDFASYYCQQANSFPWTFGQGTKVEIKRTVAAPSVFIFPPSDEQLKSGTASVVCLLNNFYPREAKVQWKVDNALQSGNSQESVTEQDSKDSTYSLSSTLTLSKADYEKHKVYACEVTHQGLSSPVTKSFNRGEC
notes: as for B1
B11: VG9B204 (antibody, human IgG1, lambda, V domains shown)
VH: QVQLQESGPGLVKPSETLSLTCTVSYGSFSSFYWSWIRQPAGKGLEWIGRIYTSGGTIYNPSLKSRVTMSVDTSKNQFSLKLSSVTAADTAVYYCARWLRAFDYWGQGTLVTVSS
VL: not shown
notes: IgG1, lambda
B12: VG9B449 (antibody, human IgG1, lambda)
heavy: not shown
light: QAVLTQPASVSGSPGQSITISCTGTSSDVGGYNYVSWYQQHPGKAPKLMIYEVSNRPSGVSNRFSGSKSGNTASLTISGLQAEDEADYYCSSYTSTSVVFGGGTKVTVLGQPKAAPSVTLFPPSSEELQANKATLVCLISDFYPGAVTVAWKADSSPVKAGVETTTPSKQSNNKYAASSYLSLTPEQWKSHRSYSCQVTHEGSTVEKTVAPTECS
notes: IgG1, lambda
B13: VG9B460 (antibody, human IgG1, lambda)
heavy: not shown
light: B12 light with A2L, V106L
notes: IgG1, lambda
B14: VG9B442 (antibody, human IgG1, lambda)
heavy: not shown
light: B12 light with A2S, V3A
notes: IgG1, lambda
B15: VG9B459 (antibody, human IgG1, lambda)
heavy: not shown
light: B12 light with A2P, V106L
notes: IgG1, lambda
B16: VG9B450 (antibody, human IgG1, lambda)
heavy: not shown
light: B12 light with A2S, V106L
notes: IgG1, lambda
B17: VG9B466 (antibody, human IgG1, lambda)
heavy: not shown
light: B12 light with Q1S, A2Y, V3E, V106L
notes: IgG1, lambda
B18: VG9B464 (antibody, human IgG1, lambda)
heavy: not shown
light: B12 light with A2S, V3A, V106L
notes: IgG1, lambda
B19: VG9B455 (antibody, human IgG1, lambda)
heavy: not shown
light: B12 light with Q1S, A2Y, V3E, V106L
notes: IgG1, lambda
B20: VG9B443 (antibody, human IgG1, lambda)
heavy: not shown
light: B12 light with A2S, V3A, V106L
notes: IgG1, lambda
B21: VG9B434 (antibody, human IgG1, lambda)
heavy: not shown
light: B12 light with A2S, V106L
notes: IgG1, lambda
B22: VG9B437 (antibody, human IgG1, lambda)
heavy: not shown
light: B12 light with A2S, V3A, V106L
notes: IgG1, lambda
B23: VG9B436 (antibody, human IgG1, lambda)
heavy: not shown
light: B12 light with A2S, V106L
notes: IgG1, lambda
B24: VG9B438 (antibody, human IgG1, lambda)
heavy: not shown
light: B12 light with Q1S, A2Y, V3E, V106L
notes: IgG1, lambda
B25: VG9B453 (antibody, human IgG1, lambda)
heavy: not shown
light: B12 light with A2S, V3A
notes: IgG1, lambda
B26: VG9B457 (antibody, human IgG1, lambda)
heavy: not shown
light: B12 light with V106L
notes: IgG1, lambda
B27: VG9B68 (antibody, human IgG1, kappa, V domains shown)
VH: EVQLVESGAEVKKPGSSVKVSCKASGGTFSTYAISWVRQAPGQGLEWMGGIIPIFGTATYAQRFQDRVMITADKSTTTAYMELSSLRSEDTAVFYCARGVGWGSDYYYGLDVWGQGTMVTVSS
VL: EIVMTQSPLSSPVTLGQPASISCRSSQSLVHSDGNTYLSWLQQRPGQSPRLLIYKISNRFSGVPDRFSGSGAGTDFTLRITRVEPEDVGVYYCIQATHHPLTFGGGTRLEIKR
notes: IgG1, kappa
B28: VG9B157 (antibody, human IgG1, lambda, V domains shown)
VH: B9 VH with V5L, Q6E
VL: SSELTQDPAVSVALGQTVRITCQGDSLRSYYATWYQQKPGQAPILVIYGENNRPSGIPDRFSGSRSGNTASLTITGAQAEDEADYYCNSRDTGDHHLVFGGGTKLTVLG
notes: IgG1, lambda

molecular target: T1, γδ T cell receptor on human γδ T cells (human); assay: flow cytometry DRC binding 37 C, human γδ T cells
T1 construct: whole, on cells; Target is the γδ TCR on a mixed population of human γδ T cells; also called AG000003021 (γδ T cells)
Procedure: (§1) Binding of antibodies to human γδ T cells or SKW cell lines expressing Vγ9/Vδ2, Vγ9/Vδ2 or Vγ5/Vδ2 was carried out by flow cytometry. Briefly, the cells were centrifuged at 300×g for 5 minutes and the pellet was resuspended in 34 ml fresh media (in RPMI+10% FBS). 50 μL of the cells were then plated (44K cells/well) into assay plates. Samples were incubated for one hour at 37° C. in tissue culture (TC) incubator followed by wash steps by adding 100 μl FACS staining buffer. Secondary detention antibodies (A647 conjugated anti-human IgG Fc specific antibody (2 μg/mL) along with AF488 anti mouse CD3, clone OKT3 at 1 ug/mL) were added at 50 μL/well to appropriate wells according to the plate map. After incubating for 60 minutes at 37° C. in the TC incubator, cells were again washed as described above. This is followed by resuspension in 20 μL/well running buffer containing 1:1000 dilution of Sytox blue dead cell stain and the plates were run on iQue Screener.
(§2) Gating and data analysis: Human anti-human Vγ9 antibody (VG9B2 mAb at 10 nM) was used to mark the gating of positive population. All cells were first gated for singlets on SCS-A vs. SCS-H dot plot, live/dead followed by CD3 positive population, and this subset of CD3 positive population was gated for Vγ9 positive binding using positive control mAb. Cells were also assessed for cell binding of control mAbs by RL1 (A647) Geomeans from the live cell population. Advanced metrics were used and normalization metrics were chosen to calculate fold over background wells containing secondary antibody alone (designated as ‘background’ within ForeCyt settings).

| Max. Activity | Binder |
| --- | --- |
| 2430 fold over background | B1 |
| 2430 fold over background | B2 |
| 536 fold over background | B3 |
| 2110 fold over background | B4 |
| 1990 fold over background | B5 |
| 2680 fold over background | B6 |
| 1990 fold over background | B7 |
| 137 fold over background | B8 |
| 739 fold over background | B9 |
| 2250 fold over background | B10 |

molecular target: T2, γδ T cell receptor on human γδ T cells (human); assay: flow cytometry, DRC binding 37 C, human γδ T cells
T2 construct: also called AG000003021 (γδ T cells)
Procedure: as §1, §2

| Max. Activity | Binder |
| --- | --- |
| 1130 fold over background | B11 |
| 1180 fold over background | B12 |
| 767 fold over background | B13 |
| 856 fold over background | B14 |
| 1090 fold over background | B15 |
| 928 fold over background | B16 |
| 946 fold over background | B17 |
| 886 fold over background | B18 |
| 1000 fold over background | B19 |
| 1010 fold over background | B20 |
| 804 fold over background | B21 |
| 885 fold over background | B22 |
| 812 fold over background | B23 |
| 895 fold over background | B24 |
| 1040 fold over background | B25 |
| 865 fold over background | B26 |
| 1190 fold over background | B27 |
| 1070 fold over background | B28 |
